Experimental data reported in patent publication US20200317768A1 (published 2020).

Legend:
[1] = target: T1, mature myostatin (human (mature form 100% identical in …, UniProt O08689 268-376 (mouse entry))); experiment: ELISA, biotinylated antigen (4 nM) on streptavidin plate, anti-human IgG-HRP
T1 construct: Disulfide-bonded homodimer purified from latent myostatin; Biotinylated in the ELISA; also called human myostatin mature form; active myostatin
T1 sequence: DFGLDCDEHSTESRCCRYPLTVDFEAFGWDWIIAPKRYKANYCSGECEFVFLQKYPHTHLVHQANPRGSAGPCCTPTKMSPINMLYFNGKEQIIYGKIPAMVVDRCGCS
Method: Uncoated ELISA plates (NUNC-IMMUNO plate MAXISORP surface, Nalge Nunc International) were coated with 20 μL of 50 nM streptavidin (GenScript) for 1 hour at room temperature. Plates were then washed with PBST three times and blocked with 50 μL 20% Blocking One (Nacalai Tesque) overnight. On the next day, each well of each plate was incubated with biotinylated mature myostatin, human or mouse biotinylated latent myostatin, or biotinylated recombinant mouse myostatin propeptide-Fc chimera protein (R&D Systems) at 4 nM/well/20 μL for 2 hours. After washing, 20 μL of antibody sample was added to the wells and the plates were left for 1 hour. The plates were washed and 20 μL of anti-human IgG-horseradish peroxidase (HRP) (Abcam) diluted in HEPES-buffered saline was added, and the plates were left for another hour. The plates were then washed again, and then 50 μL ABTS (KPL) was added to each well, and the plates were incubated for 1 hour.

[2] = target: T2, Human GDF11 with Flag-tag on N-terminus (human, UniProt O95390 11-407); experiment: ELISA, biotinylated human latent GDF11 (20 nM) on streptavidin plate, anti-human IgG-HRP
T2 construct: Whole entry as named; Biotinylated in the ELISA; also called Flag-hGDF11; human latent GDF11
T2 sequence: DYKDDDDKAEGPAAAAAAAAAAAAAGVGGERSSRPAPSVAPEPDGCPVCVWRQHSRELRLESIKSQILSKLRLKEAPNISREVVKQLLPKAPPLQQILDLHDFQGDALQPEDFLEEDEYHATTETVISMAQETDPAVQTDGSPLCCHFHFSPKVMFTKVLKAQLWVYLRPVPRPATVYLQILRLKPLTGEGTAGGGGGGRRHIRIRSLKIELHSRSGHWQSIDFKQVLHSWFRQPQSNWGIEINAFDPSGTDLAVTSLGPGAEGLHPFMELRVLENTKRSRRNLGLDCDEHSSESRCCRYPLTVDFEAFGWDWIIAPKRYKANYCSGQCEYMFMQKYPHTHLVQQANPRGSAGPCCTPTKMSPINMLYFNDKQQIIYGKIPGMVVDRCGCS
Method: Uncoated ELISA plates (NUNC-IMMUNO plate MAXISORP™ surface, Nalge Nunc International) were coated with 20 μL of 50 nM streptavidin (GenScript) for 2 hour at room temperature. Plates were then washed with PBST three times and blocked with 50 μL 20% Blocking One (Nacalai Tesque) for overnight. On the next day, each well of the plates was incubated with biotinylated human latent myostatin at 2 nM/well/20 μL or biotinylated human latent GDF11 at 20 nM/well/20 μL for 2 hours. After washing, 20 μL of antibody sample was added to the wells and the plates were left for 1 hour. The plates were washed and 20 μL of anti-human IgG-horseradish peroxidase (HRP) (Abcam) diluted in HEPES-buffered saline was added, and the plates were left for another hour. The wells were washed again, and then 50 μL ABTS (KPL) was added to each well, and the plates were incubated for 1 hour.

[3] = target: T3, Human latent myostatin (human, UniProt O14793 25-266; O14793 267-375); experiment: SPR (BIACORE T200), antibody captured by ProA/G, latent myostatin as analyte, 37 C, pH7.4, 1:1 fit
T3 construct: Biotinylated in the ELISAs; also called human myostatin latent form
T3 sequence 1: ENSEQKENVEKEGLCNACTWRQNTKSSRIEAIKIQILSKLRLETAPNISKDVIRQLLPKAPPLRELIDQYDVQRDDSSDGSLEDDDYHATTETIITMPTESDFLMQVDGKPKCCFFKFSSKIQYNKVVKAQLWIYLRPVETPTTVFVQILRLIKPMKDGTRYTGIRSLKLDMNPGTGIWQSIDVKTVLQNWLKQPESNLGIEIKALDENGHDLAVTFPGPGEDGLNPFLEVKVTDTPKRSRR
T3 sequence 2: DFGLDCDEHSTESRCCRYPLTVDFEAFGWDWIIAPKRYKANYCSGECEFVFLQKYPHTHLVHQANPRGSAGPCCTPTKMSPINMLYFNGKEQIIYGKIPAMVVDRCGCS
Method: (§1) The kinetic parameters of anti-latent myostatin antibodies against human, cynomolgus monkey (cyno), and mouse latent myostatin were assessed at 37° C. at pH7.4 using a BIACORE® T200 instrument (GE Healthcare). ProA/G (Pierce) was immobilized onto all flow cells of a CM4 chip using amine coupling kit (GE Healthcare). Anti-latent myostatin antibody and analytes were prepared in ACES pH7.4 (20 mM ACES, 150 mM NaCl, 1.2 mM CaCl₂), 0.05% TWEEN® 20, 0.005% NaN₃). […] Then human, cyno, or mouse latent myostatin was injected at 3.125 to 50 nM prepared by two-fold serial dilution, followed by dissociation. The sensor surface was regenerated with 25 mM NaOH. Kinetic parameters were determined by processing and fitting the data to a 1:1 binding model using BIACORE® T200 Evaluation software, version 2.0 (GE Healthcare).

[4] = target: T4, Mouse latent myostatin (mouse, UniProt O08689 26-267; O08689 268-376); experiment: as above
T4 construct: signal 1-24
T4 sequence 1: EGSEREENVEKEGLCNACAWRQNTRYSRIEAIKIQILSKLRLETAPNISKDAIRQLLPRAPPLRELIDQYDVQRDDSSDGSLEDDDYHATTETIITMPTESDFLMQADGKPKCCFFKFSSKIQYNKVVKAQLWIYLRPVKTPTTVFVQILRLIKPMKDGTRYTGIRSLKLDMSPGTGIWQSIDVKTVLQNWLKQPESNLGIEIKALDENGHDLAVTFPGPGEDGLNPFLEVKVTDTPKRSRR
T4 sequence 2: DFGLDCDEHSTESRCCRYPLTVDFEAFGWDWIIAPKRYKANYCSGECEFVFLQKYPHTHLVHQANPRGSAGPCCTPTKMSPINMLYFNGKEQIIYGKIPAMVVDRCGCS
Method: as §1

[5] = target: T5, Cynomolgus monkey latent myostatin (cynomolgus monkey, UniProt Q95J86 25-266; Q95J86 267-375); experiment: as above
T5 construct: signal 1-24; also called Cyno latent myostatin
T5 sequence 1: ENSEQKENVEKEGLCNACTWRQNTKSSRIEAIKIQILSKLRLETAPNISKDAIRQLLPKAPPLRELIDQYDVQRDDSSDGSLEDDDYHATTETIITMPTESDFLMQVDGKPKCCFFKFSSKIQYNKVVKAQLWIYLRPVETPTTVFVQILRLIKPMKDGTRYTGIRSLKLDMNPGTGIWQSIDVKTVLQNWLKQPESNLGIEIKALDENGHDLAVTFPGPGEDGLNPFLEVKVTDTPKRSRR
T5 sequence 2: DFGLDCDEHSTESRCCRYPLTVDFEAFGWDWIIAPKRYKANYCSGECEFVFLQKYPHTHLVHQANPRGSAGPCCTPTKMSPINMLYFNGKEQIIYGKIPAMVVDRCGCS
Method: as §1

[6] = target: T3, Human latent myostatin; experiment: SPR (BIACORE) as in Example 7; antigen not given, values equal those for human latent myostatin in Table 3
Method: as §1
Humanized antibodies were transiently expressed in FS293-F cells, and HEK Blue Assay and BIACORE® analysis were carried out as described above.

binding result [1]: no binding | binding result [2]: no binding | Kd [3]: 0.0766 nM | koff [3]: 8.65e-05 s⁻¹ | kon [3]: 1.13e+06 M⁻¹ s⁻¹ | Kd [4]: 0.0579 nM | koff [4]: 8.16e-05 s⁻¹ | kon [4]: 1.41e+06 M⁻¹ s⁻¹ | Kd [5]: 0.0717 nM | koff [5]: 7.79e-05 s⁻¹ | kon [5]: 1.09e+06 M⁻¹ s⁻¹ | Kd [6]: 0.0766 nM | koff [6]: 8.65e-05 s⁻¹ | kon [6]: 1.13e+06 M⁻¹ s⁻¹
B1: MS_MST1032Ha-G1m/MST1032La-k0MC (antibody, human IgG1, kappa, V domains shown)
VH: QSLEESGGRLVTPGGSLTVTCRVSGIDLSSYDISWVRQAPGKGLEWIGIISYAGSTYYASWAKGRFTISKTSTTVDLKMTSLTTEDTATYFCARGVPAYSTGGDLWGPGTLVTVSS
VL: AQVLTQTASSVSAAVGGTVTINCQSSQSVYDNNWLSWFQQKPGQPPKLLIYWASTLASGVPSRFKGSGSGTQFTLTISDLECDDAATYYCAGGYGGGLYAFGGGTKVEIKR
notes: Chimeric antibody: rabbit variable regions, human G1m / k0MC constant regions; also called MST1032-G1m
